# Data taken from article doi:10.1101/857136, “Structural characterization of an intermediate reveals a unified mechanism for the CLC Cl^−/H^+ transport cycle” (bioRxiv, 2019).
# B1: CLC-ec1 QQQ mutant (E148Q/E203Q/E113Q) (natural protein)
# chain: MKTDTPSLETPQAARLRRRQLIRQLLERDKTPLAILFMAAVVGTLVGLAAVAFDKGVAWLQNQRMGALVHTADNYPLLLTVAFLCSAVLAMFGYFLVRKYAPEAGGSGIPEIQGALEDQRPVRWWRVLPVKFFGGLGTLGGGMVLGRQGPTVQIGGNIGRMVLDIFRLKGDEARHTLLATGAAAGLAAAFNAPLAGILFIIEQMRPQFRYTLISIKAVFIGVIMSTIMYRIFNHEVALIDVGKLSDAPLNTLWLYLILGIIFGIFGPIFNKWVLGMQDLLHRVHGGNITKWVLMGGAIGGLCGLLGFVAPATSGGGFNLIPIATAGNFSMGMLVFIFVARVITTLLCFSSGAPGGIFAPMLALGTVLGTAFGMVAVELFPQYHLEAGTFAIAGMGALLAASIRAPLTGIILVLEMTDNYQLILPMIITGLGATLLAQFTGGKPLYSAILARTLAKQEAEQLARSK
# notes: CLC-ec1, prokaryotic CLC Cl-/H+ exchange transporter, with glutamines in place of Gluex (E148), Gluin (E203) and E113; The final crystallographic model holds all residues except those of helix A (no density); PDB 1ots is the wild-type parent used as search model; also called QQQ protein
# Target: the molecule itself
# Test: crystal structure; lipidic cubic phase (monoolein with 10% cholesterol), without any antibody Fab fragment; 16 °C; 100 mM Tris pH 8.5, 100 mM sodium malonate, 30% PEG 400, 2.5% MPD; 2.6 Å
protein,measurement,value
B1,binding result,binds
